Results taken from patent US20250388697A1 (UNIVERSITY OF MASSACHUSETTS, published 2025).

Biological target: T1, endogenous murine SOD1 WT (in non-transgenic mouse spinal cord lysate) (mouse, UniProt P08228 2-154)
T1 construct: Tested only as a component of clarified spinal cord lysate; also called marine SOD1 WT (as printed once)
Assay: competitive ELISA: Nb54 (0.2 µg/ml) on immobilized SOD1 G93A with Non-Tg mouse spinal cord lysate as competitor
Procedure: A competitive ELISA was used to assess a potential interaction between nanobody and SOD1 derived from an ALS mouse model as follows. […] All research involving animals for the following post-mortem tissue processing was reviewed and approved by the Institutional Animal Care and Use Committee (IACUC) at the University of Massachusetts Chan Medical School.
Serial dilutions were prepared in 25 μl of assay buffer (0.2% (w/v) BSA in PBS). […] A statistical analysis was performed as described below and in the figure legend.

T1 sequence (P08228 2-154 limits assumed): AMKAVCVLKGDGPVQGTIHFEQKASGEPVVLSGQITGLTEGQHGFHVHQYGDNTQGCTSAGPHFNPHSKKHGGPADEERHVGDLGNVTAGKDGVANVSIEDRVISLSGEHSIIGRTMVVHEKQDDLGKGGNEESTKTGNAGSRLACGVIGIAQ

B1: Nb54 with a non-cleavable his-tag (used in the competitive ELISA) (VHH)
VHH: QVQLVESGGGWVQAGGSLRLSCVVSGTNFNDRSMGWYRQAPGKERELVATLSYGGRRNYVDAVKARFTMSRDNRKNTTYLLMNDLEPDDTAVYYCAAGHVLESVVPATTWIEYWGQGTQVTVSS
notes: not shown: non-cleavable his-tag
binding result: no binding
